Measured values: patent US20080105961A1, “Ligands of the Molecule Fit (Agt-121) and their Pharmaceutical Use” (priority 2004, published 2008)

What was measured:
[1] = biological target: T1, FIT-PR (FIT proline-rich region) (Homo sapiens, UniProt Q9BQI5); assay: Yeast two-hybrid screen of human brain cDNA library, bait FIT-PR; assay type: binding; conditions: clones listed highest to lowest interacting strength
T1 construct: expressed in transfected cells
T1 sequence (Q9BQI5 with tags, fused parts or gaps N255T/I269V/G270A/P271T/S276A/V280A/L285P/N289S/A308T/K311T/T318A/S335T/T339A/P340S/N342I/A348T/L352P/P357S/T358A/DEL367-367/L371P/I397L/D402E/F403C/P432S/P434T/T437A/R454S/S455C/T456S): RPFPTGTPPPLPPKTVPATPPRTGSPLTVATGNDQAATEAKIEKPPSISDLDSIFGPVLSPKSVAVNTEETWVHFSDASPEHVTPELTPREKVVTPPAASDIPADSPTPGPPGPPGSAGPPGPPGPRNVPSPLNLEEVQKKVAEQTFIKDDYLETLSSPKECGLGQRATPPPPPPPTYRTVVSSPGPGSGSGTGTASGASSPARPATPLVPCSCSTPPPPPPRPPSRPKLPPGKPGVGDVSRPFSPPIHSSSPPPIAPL
Text: (§1) To investigate the mechanism by which FIT regulates energy balance, neural proteins that interact with FIT were identified. In order to perform these experiments, two truncated fragments of FIT were constructed to be used as baits in a yeast two-hybrid screen of a human brain cDNA library: one bait consisting of the N-terminal region plus the central proline-rich region, and the other bait consisting of the central proline-rich region alone. The inventors utilised a yeast two-hybrid system which incorporates modifications by Chevray and Nathans (1992), and Vidal et al. (1996) to screen a human brain cDNA library. FIT fragments were PCR amplified, purified and then cloned into an appropriate vector. Sense oligonucleotides for FIT-NP (5′-[…]-3′: SEQ ID NO:72), and FIT-PR (5′-[…]-3′: SEQ ID NO:73), with Sal1 restriction enzyme sites underlined, were used in conjunction with a common antisense oligonucleotide (5′-[…]-3′: SEQ ID NO:74), with the Not1 restriction enzyme site underlined.
(§2) Human brain cDNA inserts were prepared and cloned into the expression vector according to manufacturer's instructions.

[2] = biological target: T2, FIT-NP (FIT N-terminal plus proline-rich region) (Homo sapiens, UniProt Q9BQI5); assay: Yeast two-hybrid screen of human brain cDNA library, bait FIT-NP; assay type: binding; conditions: bait FIT-NP, human brain cDNA library; clones listed highest to lowest interacting strength
T2 construct: expressed in transfected cells
T2 sequence (Q9BQI5 with tags, fused parts or gaps I33M/P40L/N43H/V56A/I186T/P191L/T195L/E211G/Q212H/I230V/T240A/N255T/I269V/G270A/P271T/S276A/V280A/L285P/N289S/A308T/K311T/T318A/S335T/T339A/P340S/N342I/A348T/L352P/P357S/T358A/DEL367-367/L371P/I397L/D402E/F403C/A409E/P432S/P434T/T437A/R454S/S455C/T456S): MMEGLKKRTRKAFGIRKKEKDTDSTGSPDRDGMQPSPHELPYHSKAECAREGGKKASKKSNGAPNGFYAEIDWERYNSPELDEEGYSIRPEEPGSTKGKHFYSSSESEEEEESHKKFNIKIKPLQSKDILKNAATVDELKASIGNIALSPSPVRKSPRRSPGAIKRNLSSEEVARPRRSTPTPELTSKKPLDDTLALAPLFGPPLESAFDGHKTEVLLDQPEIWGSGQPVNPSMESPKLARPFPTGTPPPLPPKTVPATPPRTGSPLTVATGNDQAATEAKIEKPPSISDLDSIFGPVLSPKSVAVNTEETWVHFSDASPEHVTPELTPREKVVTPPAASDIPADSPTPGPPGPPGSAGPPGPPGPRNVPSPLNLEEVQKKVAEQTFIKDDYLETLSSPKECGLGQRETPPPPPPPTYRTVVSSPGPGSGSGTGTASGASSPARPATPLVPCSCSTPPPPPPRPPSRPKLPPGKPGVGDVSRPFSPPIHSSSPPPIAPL
Text: as §1, with “In” for “To investigate the mechanism by which FIT regulates energy balance, neural proteins that interact with FIT were identified. In”
as §2

Number of clones [1]: 1 | Number of clones [2]: 10
B1: Homo sapiens regulatory factor X, 2 (RFX2): FIT interacting protein isolated from a human brain cDNA library (protein)
chain: MQNSEGGADSPASVALRPSAAAPPVPASPQRVLVQAASSNPKGAQMQPISLPRVQQVPQQVQPVQHVYPAQVQYVEGGDAVYTNGAIRTAYTYNPEPQMYAPSSTASYFEAPGGAQVTVAASSPPAVPSHSMVGITMDVGGSPIVSSAGAYLIHGGMDSTRHSLAHTSRSSPATLEMAIENLQKSEGITSHKSGLLNSHLQWLLDNYETAEGVSLPRSSLYNHYLRHCQEHKLDPVNAASFGKLIRSVFMGLRTRRLGTRGNSKYHYYGIRLKPDSPLNRLQEDTQYMAMRQQPMHQKPRYRPAQKTDSLGDSGSHSGLHSTPEQTMAVQSQHHQQYIDVSHVFPEFPAPDLGSFLLQDGVTLHDVKALQLVYRRHCEATVDVVMNLQFHYIEKLWLSFWNSKASSSDGPTSLPASDEDPEGAVLPKDKLISLCQCDPILRWMRSCDHILYQALVEILIPDVLRPVPSTLTQAIRNFAKSLEGWLTNAMSDFPQQVIQTKVGVVSAFAQTLRRYTSLNHLAQAARAVLQNTSQINQMLSDLNRVDFANVQEQASWVCQCEESVVQRLEQDFKLTLQQQSSLDQWASWLDSVVTQVLKQHAGSPSFPKAARQFLLKWSFYSSMVIRDLTLRSAASFGSFHLIRLLYDEYMFYLVEHRVAEATGETPIAVMGEFNDLASLSLTLLDKDDMGDEQRGSEAGPDARSLGEPLVKRERSDPNHSLQGI
modifications: left off: large carriers
